Source: the Immune Epitope Database (IEDB)

Tests used:
HLA-A*02:03 [1] = test: IEDB peptide-MHC binding, purified MHC/direct/fluorescence; filed as Kd, often an IC50 or EC50 that approximates it; ≥ and ≤ were set here for values at or beyond the usual limits of such assays; details: source organism: Mycobacterium tuberculosis str. Haarlem
HLA-A*24:02 [2] = test: IEDB peptide-MHC binding, purified MHC/competitive/fluorescence; ≥ and ≤ were set here for values at or beyond the usual limits of such assays; details: source organism: Zaire ebolavirus
HLA-B*08:01 [3] = test: as above
HLA-A*02:01 [4] = test: as above
HLA-B*46:01 = test: IEDB peptide-MHC binding, purified MHC/direct/fluorescence; filed as Kd, often an IC50 or EC50 that approximates it; ≥ and ≤ were set here for values at or beyond the usual limits of such assays
HLA-B*44:02 = test: as above
HLA-B*15:01 [5] = test: as above
HLA-A*31:01 = test: as above
HLA-B*07:02 = test: as above
HLA-A*01:01 = test: as above
HLA-B*39:01 = test: as above
HLA-B*48:01 = test: as above
HLA-A*11:01 [6] = test: as above
HLA-A*69:01 = test: as above
HLA-B*27:05 = test: as above
HLA-B*18:01 = test: as above
HLA-A*29:02 = test: as above
HLA-A*02:01 [7] = test: as above
HLA-A*03:01 = test: as above
HLA-B*57:01 = test: as above
HLA-B*58:01 = test: as above
HLA-B*35:01 = test: IEDB peptide-MHC binding, purified MHC/competitive/radioactivity; filed as Kd, often an IC50 or EC50 that approximates it; ≥ and ≤ were set here for values at or beyond the usual limits of such assays
HLA-B*51:01 [8] = test: as above; details: source organism: Dengue virus 4 Philippines/H241/1956
HLA-B*53:01 = test: as above; details: source organism: Dengue virus 4 Philippines/H241/1956
HLA-A*02:17 = test: as above
HLA-A*02:06 = test: as above
HLA-A*02:01 [9] = test: as above
HLA-B*15:17 = test: IEDB peptide-MHC binding, purified MHC/direct/fluorescence; filed as Kd, often an IC50 or EC50 that approximates it; ≥ and ≤ were set here for values at or beyond the usual limits of such assays
HLA-B*51:01 [10] = test: as above; details: source organism: Mycobacterium tuberculosis
HLA-B*40:01 = test: as above
HLA-A*26:01 = test: as above; details: source organism: Salmonella enterica subsp. enterica serovar Typhimurium
HLA-A*02:03 [11] = test: IEDB peptide-MHC binding, purified MHC/competitive/radioactivity; filed as Kd, often an IC50 or EC50 that approximates it; ≥ and ≤ were set here for values at or beyond the usual limits of such assays
HLA-A*32:01 = test: as above; details: source organism: Dengue virus 1 Brazil/97-11/1997
HLA-B*08:01 [12] = test: as above; details: source organism: Dengue virus 1 Brazil/97-11/1997
HLA-A*68:02 = test: as above; details: source organism: Dengue virus 1 Brazil/97-11/1997
HLA-B*15:01 [13] = test: as above; details: source organism: Dengue virus 1 Brazil/97-11/1997
HLA-A*23:01 = test: as above; details: source organism: Dengue virus 1 Brazil/97-11/1997
HLA-A*24:02 [14] = test: as above; details: source organism: Dengue virus 1 Brazil/97-11/1997
HLA-A*11:01 [15] = test: IEDB peptide-MHC binding, purified MHC/competitive/fluorescence; ≥ and ≤ were set here for values at or beyond the usual limits of such assays; details: source organism: Zaire ebolavirus
[16] = source organism: Zaire ebolavirus
[17] = source organism: Mycobacterium avium 104
[18] = source organism: Vaccinia virus
[19] = source organism: Dengue virus 4 Philippines/H241/1956
[20] = source organism: Mycobacterium tuberculosis
[21] = source organism: Dengue virus 2 Jamaica/1409/1983
[22] = source organism: Dengue virus 1 Brazil/97-11/1997
[23] = source organism: Salmonella enterica subsp. enterica serovar Typhimurium
[24] = source organism: Dengue virus 1 Singapore/S275/1990
[25] = source organism: Dengue virus 3 China/80-2/1980
[26] = source organism: West Nile virus

AMWDWSKSV
Kd (HLA-A*02:03 [1]): ≤ 1 nM

DMDYHKILT
IC50 (HLA-A*24:02 [2]): 4040 nM
IC50 (HLA-B*08:01 [3]; [16]): ≥ 199000 nM
IC50 (HLA-A*02:01 [4]; [16]): ≥ 277000 nM

EHVQGDIDL
Kd (HLA-B*46:01; [17]): ≥ 20000 nM
Kd (HLA-B*44:02; [17]): ≥ 20000 nM
Kd (HLA-B*15:01 [5]; [17]): ≥ 20000 nM
Kd (HLA-A*31:01; [17]): ≥ 20000 nM
Kd (HLA-B*07:02; [17]): ≥ 20000 nM
Kd (HLA-A*01:01; [17]): ≥ 20000 nM
Kd (HLA-B*39:01; [17]): 224 nM
Kd (HLA-B*48:01; [17]): ≥ 20000 nM
Kd (HLA-A*11:01 [6]; [17]): ≥ 20000 nM
Kd (HLA-A*69:01; [17]): ≥ 20000 nM
Kd (HLA-B*27:05; [17]): ≥ 20000 nM
Kd (HLA-B*18:01; [17]): ≥ 20000 nM
Kd (HLA-A*29:02; [17]): ≥ 20000 nM
Kd (HLA-A*02:01 [7]; [17]): ≥ 20000 nM
Kd (HLA-A*03:01; [17]): ≥ 20000 nM
Kd (HLA-B*57:01; [17]): ≥ 20000 nM
Kd (HLA-B*58:01; [17]): ≥ 20000 nM

FRAFRNLNV
IC50 (HLA-B*08:01 [3]; [18]): 6190 nM
IC50 (HLA-A*02:01 [4]; [18]): ≥ 89100 nM

FSMGLLCLTL
Kd (HLA-B*35:01; [19]): 3070 nM
Kd (HLA-B*51:01 [8]): ≥ 69600 nM
Kd (HLA-B*53:01): 333 nM
Kd (HLA-A*02:17; [19]): 84 nM
Kd (HLA-A*02:06; [19]): 8.49 nM
Kd (HLA-A*02:01 [9]; [19]): 8990 nM

GPRGRHVVL
Kd (HLA-B*46:01; [20]): ≥ 20000 nM
Kd (HLA-B*15:01 [5]; [20]): ≥ 20000 nM
Kd (HLA-A*31:01; [20]): ≥ 20000 nM
Kd (HLA-A*01:01; [20]): ≥ 20000 nM
Kd (HLA-B*15:17; [20]): ≥ 20000 nM
Kd (HLA-B*39:01; source organism: Mycobacterium tuberculosis str. Haarlem): ≥ 20000 nM
Kd (HLA-B*48:01; [20]): ≥ 20000 nM
Kd (HLA-B*51:01 [10]): ≥ 20000 nM
Kd (HLA-A*11:01 [6]; [20]): ≥ 20000 nM
Kd (HLA-A*69:01; [20]): ≥ 20000 nM
Kd (HLA-B*27:05; [20]): ≥ 20000 nM
Kd (HLA-B*40:01; [20]): ≥ 20000 nM
Kd (HLA-B*18:01; [20]): ≥ 20000 nM
Kd (HLA-A*02:01 [7]; [20]): ≥ 20000 nM
Kd (HLA-A*03:01; [20]): ≥ 20000 nM
Kd (HLA-B*57:01; [20]): ≥ 20000 nM
Kd (HLA-B*58:01; [20]): ≥ 20000 nM

IILEFFLIVL
Kd (HLA-A*02:17; [21]): 802 nM
Kd (HLA-A*02:06; [21]): 325 nM
Kd (HLA-A*02:01 [9]; [21]): 109 nM

IILEFFLMVL
Kd (HLA-A*02:17; [19]): 1400 nM
Kd (HLA-A*02:06; [22]): 329 nM
Kd (HLA-A*02:01 [9]; [19]): 95.5 nM

IMAAILAYTI
Kd (HLA-A*02:17; [21]): 1600 nM
Kd (HLA-A*02:01 [9]; [21]): 30.6 nM

KSNGAQQWL
Kd (HLA-B*15:01 [5]; [23]): ≥ 20000 nM
Kd (HLA-B*07:02; [23]): ≥ 20000 nM
Kd (HLA-A*26:01): ≥ 20000 nM
Kd (HLA-A*01:01; [23]): ≥ 20000 nM
Kd (HLA-B*15:17; [23]): 6 nM
Kd (HLA-B*27:05; [23]): ≥ 20000 nM
Kd (HLA-A*02:01 [7]; [23]): ≥ 20000 nM
Kd (HLA-A*03:01; [23]): ≥ 20000 nM
Kd (HLA-B*57:01; [23]): 2160 nM
Kd (HLA-B*58:01; [23]): 355 nM

LLLTLLATV
Kd (HLA-A*02:03 [11]; [21]): 1.55 nM
Kd (HLA-A*02:17; [21]): 157 nM
Kd (HLA-A*02:06; [21]): 1.01 nM

MLLMLLPTA
Kd (HLA-A*02:17; [24]): 161 nM
Kd (HLA-A*02:06; [22]): 1.08 nM
Kd (HLA-A*02:01 [9]; [24]): 0.482 nM

MLMTGTLAV
Kd (HLA-A*32:01): 502 nM
Kd (HLA-A*02:03 [11]; [22]): 0.47 nM
Kd (HLA-A*02:17; [24]): 753 nM
Kd (HLA-A*02:06; [22]): 9.69 nM
Kd (HLA-B*08:01 [12]): 22.5 nM
Kd (HLA-A*02:01 [9]; [24]): 19.7 nM
Kd (HLA-A*68:02): 9.71 nM

MLMTGTLAVF
Kd (HLA-B*15:01 [13]): 1.24 nM
Kd (HLA-B*35:01; [22]): 342 nM
Kd (HLA-A*23:01): 55 nM
Kd (HLA-A*24:02 [14]): 296 nM
Kd (HLA-A*02:17; [24]): 32.3 nM
Kd (HLA-A*02:01 [9]; [24]): 75.1 nM

QGIVRQRVI
IC50 (HLA-A*24:02 [2]): 11400 nM
IC50 (HLA-A*11:01 [15]): ≥ 159000 nM
IC50 (HLA-B*08:01 [3]; [16]): 7350 nM
IC50 (HLA-A*02:01 [4]; [16]): ≥ 401000 nM

QLANAIFKL
Kd (HLA-A*02:17; [25]): 24.4 nM
Kd (HLA-A*02:01 [9]; [25]): 4.09 nM

VLLLVTHYA
Kd (HLA-A*02:17; [25]): 6820 nM
Kd (HLA-A*02:01 [9]; [25]): 6.97 nM

YCPGTTVTL
Kd (HLA-B*46:01; [26]): ≥ 20000 nM
Kd (HLA-B*44:02; [26]): ≥ 20000 nM
Kd (HLA-B*15:01 [5]; [26]): ≥ 20000 nM
Kd (HLA-A*31:01; [26]): ≥ 20000 nM
Kd (HLA-B*07:02; [26]): ≥ 20000 nM
Kd (HLA-A*01:01; [26]): ≥ 20000 nM
Kd (HLA-B*39:01; [26]): 1310 nM
Kd (HLA-B*48:01; [26]): ≥ 20000 nM
Kd (HLA-A*11:01 [6]; [26]): ≥ 20000 nM
Kd (HLA-A*69:01; [26]): ≥ 20000 nM
Kd (HLA-B*27:05; [26]): ≥ 20000 nM
Kd (HLA-B*40:01; [26]): ≥ 20000 nM
Kd (HLA-B*18:01; [26]): ≥ 20000 nM
Kd (HLA-A*29:02; [26]): ≥ 20000 nM
Kd (HLA-A*03:01; [26]): ≥ 20000 nM
Kd (HLA-B*57:01; [26]): ≥ 20000 nM

YMWLGARFL
Kd (HLA-A*02:17; [21]): 94.2 nM
Kd (HLA-A*02:01 [9]; [21]): 6.72 nM
